# In publication PMC9418810:
# Target: AcMYB1 (full length) in the AD plasmid pGADT7 (Allium cepa (onion))
substance,measurement,value
"AcB2 (full length, 1–615 aa) in the BD plasmid pGBKT7 (natural protein)","AcANS or AcF3H1 promoter-luciferase reporter activation in Arabidopsis leaf protoplasts, coexpression of AcB2 and AcMYB1 compared with AcMYB1 alone",> 2.5 fold
